Test results as given in patent CN114316047A (DONGDA BIOTECHNOLOGY SUZHOU CO LTD, dated 2022).

B1: hu8D4-hIgG4 (antibody, part only; not given: Light chain variable domain, constant regions, V domains shown, part only)
VH: QVQLVQSGAEVKKPGASVKVSCKASGYTFTNFWMHWVRQAPGQRLEWIGAIFPGNTDTTYNRKFKDRATLTADTSASTAYMELSSLRSEDTAVYYCTRNHYGLDYWGQGTLVTVSS
B2: 10A10 (antibody, V domains shown)
VH: EVKLVESGGDLVKPGGSLKLSCAASGFTFNYYDISWVRQTPEKRLEWVATISGGGRYTYYLDNVQGRFTISRDNAKNILYLQMNSLRSDDTALYFCASPYEGAMDYWGQGTSVTVSS
VL: DIVMTQSHKFMSTSIGDGVNITCKASQDVGTAVAWYQQKPGQSPKLLNKWASTRHTGVPDRFTGSGSGTDFTLTINNVQSEDLADYFCQQYSTFPYTFGGGTNLELK
notes: Mouse monoclonal antibody purified from hybridoma supernatant by Protein A; also called 鼠源PD-1单克隆抗体10A10; PD-1杂交瘤抗体10A10
B3: 9H8 (antibody, V domains shown)
VH: EVKLVESGGGLVQPGGSLKLSCATSGFTFSDYYMYWVRQTPEKRLEWVAQISNGGGNTYYPDTVKGRFTISRDNAKNTLYLQMSRLKSEDTAIYYCSKSYYKYDGWYFDVWGAGTTVTVSS
VL: DIVLTQSPASLAVSLGQRATISCRASESVEYSRTSLIQWYQLKPGQPPKLLIYAASYVESGVPDRFSGSGSGTEFSFNIHPVEEDDIAMYFCQQARKVPWTFGGGTNLEIK
notes: Mouse monoclonal antibody purified from hybridoma supernatant by Protein A; also called 鼠源PD-1单克隆抗体9H8; PD-1杂交瘤抗体9H8
B4: 8D4 (antibody, V domains shown)
VH: EVQLQQSGTVLARPGASVKMSCKTSGYTFTNFWMHWVKQRPGQGLDWIGAIFPGNTDTTYNRKFKDKAKLTAVTSASTAYMELSSLTNEDSAVYYCTRNHYGLDYWGQGTSVTVSS
VL: DIVLTQSPASLAVSLGQRATISCRASESVSIHGTHLMHWYQQKPGQPPKLLIYIASNLGSGVPARFSGSGSETDFTLNIHPVEEEDAATYFCQQSIEDPWTFGGGTKLEIK
notes: Mouse monoclonal antibody purified from hybridoma supernatant by Protein A; also called 鼠源PD-1单克隆抗体8D4; PD-1杂交瘤抗体8D4
B5: 5F7 (antibody, V domains shown)
VH: EVMLVESGGDLVKPGGSLKLSCAASGFTFSSYMMSWVRQTPEKRLEWVAAISGGGGDTYYPDSVKGRFTISRDNAKNTLYLQMSSLRSEDTALYYCARRVVYAMDCWGQGTSVTVSS
VL: DIQMTQSPASQSASLGESVTITCLASQSIGTWLVWYQQKPGKSPQLLISAATSLADGVPSRFSGSGSGTKFSFKISSLQAEDFVSYYCQQLYIIPWTFGGGTKLEIK
notes: Mouse monoclonal antibody purified from hybridoma supernatant by Protein A; also called 鼠源PD-1单克隆抗体5F7; PD-1杂交瘤抗体5F7
B6: 5H10 (antibody, V domains shown)
VH: EVQLVESGGGLVKPGGSLKLSCAASGFTFSDYGMHWVRQAPEKGLEWVAYISGDSNTIYYADTVKGRFTISRDNAKNTLFLQMTSLRSEDTAMYYCTKRGPYYGYTHYFDYWGQGTTLTVSS
VL: SIVMTQTPKFLLVSAGDRVTMTCKASQSVSNDVVWYQQKPGQSPKLLIYYASKRYTGVPDRFTGNGYGTDFTFTISTVQAEDLAVYFCQQDYSSPWTFGGGTKLEIK
notes: Mouse monoclonal antibody purified from hybridoma supernatant by Protein A; also called 鼠源PD-1单克隆抗体5H10; PD-1杂交瘤抗体5H10
B7: 4B5 (antibody, V domains shown)
VH: EVILVESGGDLVKPGGSLKLSCAASGFTFSSYMMSWVRQTPEKRLEWVATISGGGANTYYLDSMKGRFTISRDNAKNILYLQMSSLRSEDTAFYYCARQSDRGFPYWGQGTLVTVSA
VL: DIQMTQSPASQSASLGESVTITCLASQPIGTWLAWYQQKPGTSPQLLIFAATTLTDGVPSRFSGSGSGTKFSFKISSLQAEDFVSYYCQQFSSIPYTFGGGTRLEIK
notes: Mouse monoclonal antibody purified from hybridoma supernatant by Protein A; also called 鼠源PD-1单克隆抗体4B5; PD-1杂交瘤抗体4B5
B8: hu9H8-hIgG4 (antibody, V domains shown)
VH: EVQLLESGGGLVQPGGSLRLSCAASGFTFSDYYMYWVRQAPGKGLEWVSQISNGGGNTYYPDTVKGRFTISRDNSKNTLYLQMNSLRAEDTAVYYCSKSYYKYDGWYFDVWGQGTLVTVSS
VL: DIVMTQSPDSLAVSLGERATINCRASESVEYSRTSLIQWYQQKPGQPPKLLIYAASYVESGVPDRFSGSGSGTDFTLTISSLQAEDVAVYYCQQARKVPWTFGQGTKLEIK
notes: Humanised antibody built as IgG4 subtype, expressed in 293 cells; also called 9H8人源化抗体; 人源化抗体9H8

Experiments:
[1] = target: T1, 人的PD-1胞外区与人Fc融合蛋白(PD-1-ECD-hFc) (human, UniProt Q15116 25-170); test: competition ELISA, coated PD-1-hFc (per table title; figure 7 legend says PD-1-mFc), competitor PD-L1-Biotin
T1 construct: extracellular domain; Coated on ELISA plates; also called PD-1-hFc; not shown: human Fc

[2] = target: T2, 人的PD-1胞外区与小鼠Fc融合蛋白(PD-1-ECD-mFc) (human, UniProt Q15116 25-170); test: ELISA on coated PD-1-mFc (antigen per legend of figure 6)
T2 construct: extracellular domain; also called PD-1-mFc; not shown: mouse Fc

PD-1 on 293T-PD-1 cells [3] = target: T3, PD-1 on 293T-PD-1 cells (UniProt Q15116 25-288, limits assumed); test: FACS on 293T-PD-1 cells
T3 construct: whole, on cells; the antibodies are anti-human PD-1

[4] = target: T1, 人的PD-1胞外区与人Fc融合蛋白(PD-1-ECD-hFc); test: competition ELISA, PD-1-ECD-hFc coated, competitor PD-L1-Biotin
PD-1 on 293T-PD-1 cells [5] = target: T3, PD-1 on 293T-PD-1 cells; test: competition FACS on 293T-PD-1 cells, competitor PD-L1-biotin (row head prints EC50, title IC50)
[6] = target: T1, 人的PD-1胞外区与人Fc融合蛋白(PD-1-ECD-hFc); test: ELISA, PD-1-ECD-hFc coated, goat anti-mouse IgG detection
PD-1 on 293T-PD-1 cells [7] = target: T3, PD-1 on 293T-PD-1 cells; test: FACS on 293T-PD-1 cells, PE goat anti-mouse detection

T1 sequence (Q15116 25-170): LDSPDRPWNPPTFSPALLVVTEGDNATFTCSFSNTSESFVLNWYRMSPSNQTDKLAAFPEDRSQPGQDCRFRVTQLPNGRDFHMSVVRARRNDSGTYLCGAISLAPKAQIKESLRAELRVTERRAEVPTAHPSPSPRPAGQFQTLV
T3 sequence (Q15116 25-288 limits assumed): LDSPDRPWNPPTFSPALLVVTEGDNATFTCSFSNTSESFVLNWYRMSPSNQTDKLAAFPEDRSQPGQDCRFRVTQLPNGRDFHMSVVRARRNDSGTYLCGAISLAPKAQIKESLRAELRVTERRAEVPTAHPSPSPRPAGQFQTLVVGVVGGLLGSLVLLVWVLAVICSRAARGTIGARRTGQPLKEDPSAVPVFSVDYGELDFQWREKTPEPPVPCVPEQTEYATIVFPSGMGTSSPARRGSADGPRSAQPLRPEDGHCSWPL
T2 sequence (Q15116 25-170): as the sequence (Q15116 25-170) above

Binder	IC50 [1] [µg/mL]	EC50 [2] [µg/mL]	EC50 (PD-1 on 293T-PD-1 cells [3]) [µg/mL]	IC50 [4] [µg/mL]	IC50 (PD-1 on 293T-PD-1 cells [5]) [µg/mL]	EC50 [6] [µg/mL]	EC50 (PD-1 on 293T-PD-1 cells [7]) [µg/mL]
B1	0.851	0.0489	0.311				
B2				0.361	0.0276	0.00114	0.0314
B3				0.319	0.00854	0.000511	0.0203
B4				0.37	0.0296	0.00261	0.0443
B5				0.324	0.0181	0.00123	0.0176
B6				0.339	0.0412	0.00109	0.0643
B7				0.343	0.0355	0.00175	0.04
B8	0.332	0.00532	0.285				
